According to the supplement of paper PMC7877785:
± gives the uncertainty stated by the source.

Assay: self-splicing fitness, log relative to wild type (ln ratio); higher = more splicing; Tetrahymena group I intron in knt gene, E. coli kanamycin selection, DiMSum; sequences stand for … in CUCUCU…GGAGGGAAAAGUUAUCAGGCAUGCACCUGGUAGCUAGUCUUUAAACCAAUAGAUUGCAUCGGUUUAAAAGGCAAGACCGUCAAAUUGCGGGAAAGGGGUCAACAGCCGUUCAGUACCAAGUCUCAGGGGAAACUUUGAGAUGGCCUUGCAAAGGGUAUGGUAAUAAGCUGACGGACAUGGUCCUAACCACGCAGCCAAGUCCUAAGUCAACAGAUCUUCUGUUGAUAUGGAUGCAGUUCACAGACUAAAUGUCGGUCGGGGAAGAUGUAUUCUUCUCAUAAGAUAUAGUCGGACCUCUCCUUAAUGGGAGCUAGCGGAUGAAGUGAUGCAACACUGGAGCCGCUGGGAACUAAUUUGUAUGCGAAAGUAUAUUGAUUAGUUUUGGAGUACUCGUGGUCG
Method in brief: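 DiMSum derived fitness as the error-weighted combination of fold changes across replicates, kanamycin versus no kanamycin, normalised to wild type. E. coli BL21(DE3) held the library, which randomised all eight P1ex-region intron nucleotides within the knt kanamycin-resistance gene on pET-22b(+). Six replicate transformations grew overnight at 37°C or 30°C on LB agar with or without 25 μg/mL kanamycin, also containing 100 μg/mL carbenicillin, 50 μM IPTG and 0.2% rhamnose, and pooled colonies were amplicon-sequenced on an Illumina HiSeq 2500.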

Sequence | self-splicing fitness (ln) (30 °C) | self-splicing fitness (ln) (37 °C)
CUGUAGCAAUAUUACGAGGU | -4.23 ± 0.28 | -2.42 ± 0.21
CUGUAGCAAUAUUACGCCUG | -0.759 ± 0.14 | 0.521 ± 0.16
CUGUAGCAAUAUUACGCGGC | -2.51 ± 0.47 | -2.14 ± 0.3
CUGUAGCAAUAUUACGCUAC | -3.21 ± 0.35 | -1.39 ± 0.32
CUGUAGCAAUAUUACGCUUU | -3.83 ± 0.17 | -3.19 ± 0.21
CUGUAGCAAUAUUACGGCGU | -3.75 ± 0.33 | -2.2 ± 0.33
CUGUAGCAAUAUUACGGGAA | -1.49 ± 0.29 | -2.12 ± 0.35
CUGUAGCAAUAUUACGUACG | -1.43 ± 0.21 | -1.05 ± 0.19
CUGUAGCAAUAUUACGUACU | -2.61 ± 0.11 | -1.3 ± 0.13
CUGUAGCAAUAUUACGUCAA | -2.56 ± 0.19 | -1.85 ± 0.19
CUGUAGCAAUAUUACGUCCG | -0.133 ± 0.08 | 0.0507 ± 0.11
CUGUAGCAAUAUUACGUCGA | -2.71 ± 0.35 | -1.06 ± 0.35
CUGUAGCAAUAUUACGUUAA | -3.31 ± 0.33 | -1.49 ± 0.23
CUGUAGCAAUAUUACGUUGA | -2.93 ± 0.2 | -2.43 ± 0.2
CUUAAGCAAUAUUACGAAAU | -3.41 ± 0.24 | -2.48 ± 0.26
CUUAAGCAAUAUUACGACAA | -2.75 ± 0.41 | -2.98 ± 0.34
CUUAAGCAAUAUUACGACGG | -0.508 ± 0.1 | -0.291 ± 0.13
CUUAAGCAAUAUUACGAGGU | -1.3 ± 0.14 | -3.09 ± 0.26
CUUAAGCAAUAUUACGAUAC | -2.53 ± 0.36 | -2.33 ± 0.5
CUUAAGCAAUAUUACGCAUA | -3.2 ± 0.32 | –
CUUAAGCAAUAUUACGCCGG | -4.01 ± 0.33 | -1.85 ± 0.25
CUUAAGCAAUAUUACGCGUG | -2.99 ± 0.15 | -1.26 ± 0.12
CUUAAGCAAUAUUACGCUAU | -1.59 ± 0.32 | -1.8 ± 0.33
CUUAAGCAAUAUUACGCUGA | -3.94 ± 0.39 | -1.17 ± 0.25

Sequence | self-splicing fitness (ln) (30 °C) | self-splicing fitness (ln) (37 °C)
CUUAAGCAAUAUUACGGAAC | – | -1.89 ± 0.3
CUUAAGCAAUAUUACGGCAA | -2.7 ± 0.42 | -2.57 ± 0.38
CUUAAGCAAUAUUACGGCAG | -0.565 ± 0.099 | -0.3 ± 0.12
CUUAAGCAAUAUUACGGGAG | -3.42 ± 0.27 | -2.67 ± 0.27
CUUAAGCAAUAUUACGGUGA | -3.72 ± 0.24 | -2.17 ± 0.19
CUUAAGCAAUAUUACGGUGC | -3.83 ± 0.17 | -2.25 ± 0.2
CUUAAGCAAUAUUACGUACC | -2.7 ± 0.35 | -0.17 ± 0.47
CUUAAGCAAUAUUACGUCAC | -3.97 ± 0.29 | -2.91 ± 0.3
CUUCAGCAAUAUUACGACAG | -0.695 ± 0.069 | -0.281 ± 0.093
CUUCAGCAAUAUUACGACAU | -3.599 ± 0.023 | -2.28 ± 0.036
CUUCAGCAAUAUUACGAGAC | -4.24 ± 0.34 | -3.01 ± 0.34
CUUCAGCAAUAUUACGAUAU | -3.28 ± 0.22 | -1.73 ± 0.27
CUUCAGCAAUAUUACGCAAA | -2.99 ± 0.26 | -2.21 ± 0.33
CUUCAGCAAUAUUACGCAGC | -2.04 ± 0.22 | -1.5 ± 0.32
CUUCAGCAAUAUUACGCAUG | -1.48 ± 0.061 | 0.119 ± 0.068
CUUCAGCAAUAUUACGCAUU | -3.11 ± 0.19 | -2.28 ± 0.2
CUUCAGCAAUAUUACGCCCC | – | -1.14 ± 0.47
CUUCAGCAAUAUUACGCUAA | -3.37 ± 0.26 | -2.3 ± 0.3
CUUCAGCAAUAUUACGCUAC | -2.4 ± 0.22 | -2.25 ± 0.37
CUUCAGCAAUAUUACGCUCC | -2.61 ± 0.26 | –
CUUCAGCAAUAUUACGCUGU | -3.69 ± 0.31 | -2.47 ± 0.42
CUUCAGCAAUAUUACGGACU | -2.26 ± 0.16 | -2.66 ± 0.27
CUUCAGCAAUAUUACGGAGC | -3.04 ± 0.29 | -2.65 ± 0.25
CUUCAGCAAUAUUACGGAGU | -3.27 ± 0.15 | -3.23 ± 0.28
